Test in all cases: MSD ECL multi-spot, Fab 2.38 uM, blank 526;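 further: blank spot per well as comparator with Hit at signal to blank ratio of 4 or more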
For test [1], the target named is T1, rHuman IGF-1 sR (insulin-like growth factor-1 soluble receptor), CF (R&D Systems Cat#391-GR) (human, UniProt P08069 31-932).
T1 construct: Bought soluble receptor; also called IGF-R1

Test [2] addresses T2, rHuman ErbB2/Fc Chimera, CF (R&D Systems Cat#1129-ER) (human, UniProt P04626 23-652).
T2 construct: Bought Fc chimera; also called HER2/neu; Fc part of the bought chimera not given

Test [3] concerns the target T3, rHuman Erythropoietin R/Fc Chimera, CF (R&D Systems Cat#963-ER) (human, UniProt P19235 25-250).
T3 construct: Bought Fc chimera; also called EPO R/Fc; EPOR; Fc part of the bought chimera not given
T3 sequence: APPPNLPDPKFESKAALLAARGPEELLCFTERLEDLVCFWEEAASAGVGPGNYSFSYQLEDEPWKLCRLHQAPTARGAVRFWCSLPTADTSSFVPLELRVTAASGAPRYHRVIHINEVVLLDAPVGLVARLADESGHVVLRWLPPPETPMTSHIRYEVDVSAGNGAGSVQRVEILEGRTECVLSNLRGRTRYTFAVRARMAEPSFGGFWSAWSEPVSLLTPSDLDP

In test [4] the target is T4, rHuman CD44/Fc Chimera, CF (R&D Systems Cat#3660-CD) (human, UniProt P16070 21-220).
T4 construct: Bought Fc chimera; Fc part of the bought chimera not given

Test [5] has as its target T5, Recombinant Human DLL4 (R&D Systems Cat#1506-D4/CF) (human, UniProt Q9NR61 27-524).
T5 construct: Bought recombinant protein; also called rHuman DLL4; delta-like protein 4

Test [6] deals with T6, rHuman EGF R/Fc Chimera, CF (R&D Systems Cat#344-ER) (human, UniProt P00533 25-645).
T6 construct: Bought Fc chimera; Fc part of the bought chimera not given

The target of test [7] is T7, rHuman Notch-1/Fc Chimera, CF (R&D Systems Cat#3647-TK) (human, UniProt P46531 19-526).
T7 construct: Bought Fc chimera; Fc part of the bought chimera not given

B1: Fab VH5-51_IGHD5-18*01>3_IGHJ4*01 & V3-4_IGLJ1*01 (Fab, V domains shown)
VH: EVQLVQSGAEVKKPGESLKISCKGSGYSFTSYWIGWVRQMPGKGLEWMGIIYPGDSDTRYSPSFQGQVTISADKSISTAYLQWSSLKASDTAMYYCARRGYSYGYDYFDYWGQGTLVTVSS
VL: QTVVTQEPSFSVSPGGTVTLTCGLSSGSVSTSYYPSWYQQTPGQAPRTLIYSTNTRSSGVPDRFSGSILGNKAALTITGAQADDESDYYCVLYMGSGISYVFGTGTKVTVL
notes: Expressed in E. coli as Fab: heavy chain with CH1 plus Flag and His tags from Plasmid A, lambda light chain constant region from Plasmid E; also called Fab No. 2
On to B1, for which the ECL signal came to 691 in test [1]; 594 in test [2]; 834 in test [3]; 666 in test [4]; 12200 in test [5]; 681 in test [6]. In test [7], this molecule returned an ECL signal of 636.

Values taken from US20120058906A1 (published 2012).
